Assay results reported in patent publication US20240301385, “DNA MODIFYING ENZYMES AND ACTIVE FRAGMENTS AND VARIANTS THEREOF AND METHODS OF USE” (LIFEEDIT THERAPEUTICS, INC., published 2024).

T1: APG00868-L16-nAPG07433.1 (synthetic)
T1 chain: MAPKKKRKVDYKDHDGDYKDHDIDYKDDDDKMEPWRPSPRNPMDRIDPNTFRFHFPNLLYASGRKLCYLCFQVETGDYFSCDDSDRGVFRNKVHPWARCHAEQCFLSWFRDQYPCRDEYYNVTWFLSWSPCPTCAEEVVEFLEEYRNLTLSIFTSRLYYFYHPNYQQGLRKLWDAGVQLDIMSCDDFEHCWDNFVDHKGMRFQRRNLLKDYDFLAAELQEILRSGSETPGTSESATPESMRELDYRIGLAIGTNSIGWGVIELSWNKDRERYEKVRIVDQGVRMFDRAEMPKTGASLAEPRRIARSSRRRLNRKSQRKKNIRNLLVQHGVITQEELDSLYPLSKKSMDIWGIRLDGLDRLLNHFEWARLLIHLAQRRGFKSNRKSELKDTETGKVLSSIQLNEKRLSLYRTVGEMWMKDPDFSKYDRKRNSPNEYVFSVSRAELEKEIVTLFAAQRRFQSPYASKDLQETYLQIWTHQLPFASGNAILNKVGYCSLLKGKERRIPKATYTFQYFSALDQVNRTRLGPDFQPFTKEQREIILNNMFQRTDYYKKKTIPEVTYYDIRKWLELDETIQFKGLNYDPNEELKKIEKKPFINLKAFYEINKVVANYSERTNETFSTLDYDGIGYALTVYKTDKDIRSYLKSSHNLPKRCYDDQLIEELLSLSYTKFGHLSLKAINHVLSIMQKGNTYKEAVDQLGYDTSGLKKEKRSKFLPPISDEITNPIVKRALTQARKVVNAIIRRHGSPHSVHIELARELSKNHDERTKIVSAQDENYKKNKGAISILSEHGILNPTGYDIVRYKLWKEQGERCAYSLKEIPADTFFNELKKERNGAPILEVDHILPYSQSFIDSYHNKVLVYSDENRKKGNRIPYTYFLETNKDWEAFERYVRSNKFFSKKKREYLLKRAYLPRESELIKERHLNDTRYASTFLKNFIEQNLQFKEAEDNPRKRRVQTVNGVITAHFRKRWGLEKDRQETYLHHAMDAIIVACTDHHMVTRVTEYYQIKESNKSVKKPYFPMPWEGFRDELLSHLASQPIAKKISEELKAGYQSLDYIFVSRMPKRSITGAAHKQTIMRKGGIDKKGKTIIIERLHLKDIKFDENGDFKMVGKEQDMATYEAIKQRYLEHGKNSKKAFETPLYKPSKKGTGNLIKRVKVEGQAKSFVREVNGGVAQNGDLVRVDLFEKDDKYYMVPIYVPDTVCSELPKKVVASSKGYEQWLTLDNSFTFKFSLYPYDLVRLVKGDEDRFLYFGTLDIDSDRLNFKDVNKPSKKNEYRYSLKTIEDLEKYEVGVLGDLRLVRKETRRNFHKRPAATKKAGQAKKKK

B1: SGN000929 sgRNA ; SGN000929 target (ssRNA ; dsDNA)
RNA: AUCUGGAGGGAACUUACAGCAUAUGGUCAUAGUUCCAUGAAAGCCAAAAGUGGCUUUGAUGUUUCUAUGAUAAGGGUUUCGGCCCGUGGCGUCGGGGAUCGCCUGCCCAUUCCGAUGGGCUUCUCCCCAUUUAUU
DNA 1: ATCTGGAGGGAACTTACAGCATATG
DNA 2: CATATGCTGTAAGTTCCCTCCAGAT
B2: SGN001101 sgRNA ; SGN001101 target (ssRNA ; dsDNA)
RNA: AUAUUUUCUUUAAUGGUGCCAGGCAGUCAUAGUUCCAUUAAAGCCAAAAGUGGCUUUGAUGUUUCUAUGAUAAGGGUUUCGACCCGUGGCGUCGGGGAUCGCCUGCCCAUUGAAAUGGGCUUCUCCCCAU
DNA 1: ATATTTTCTTTAATGGTGCCAGGCA
DNA 2: TGCCTGGCACCATTAAAGAAAATAT
B3: SGN000169 sgRNA ; SGN000169 target (ssRNA ; dsDNA)
RNA: CACAUCUCGAGCAAGACGUUGUCAUAGUUCCAUUAAAGCCAAAAGUGGCUUUGAUGUUUCUAUGAUAAGGGUUUCGACCCGUGGCGUCGGGGAUCGCCUGCCCAUUGAAAUGGGCUUCUCCCCAUUUAUU
DNA 1: CACATCTCGAGCAAGACGTT
DNA 2: AACGTCTTGCTCGAGATGTG

Biological target: T1, APG00868-L16-nAPG07433.1
Assay: cell_activity; HEK293FT; PAM SEQ 152
Conditions: tags: SV40 NLS, 3xFLAG N-term; nucleoplasmin NLS C-term
Description: 500 ng of plasmid comprising an expression cassette comprising a coding sequence for each fusion protein shown in Table 3 and 500 ng of plasmid comprising an expression cassette encoding an sgRNA shown in Table 4 were co-transfected into HEK293FT cells at 75-90% confluency in 24-well plates using Lipofectamine 2000 reagent (Life Technologies). Cells were then incubated at […] for 72 h. Following incubation, genomic DNA was then extracted using NucleoSpin 96 Tissue (Macherey-Nagel) following the manufacturer's protocol. The genomic region flanking the targeted genomic site was PCR amplified using the primers in Table 4 and products were purified using ZR-96 DNA Clean and Concentrator (Zymo Research) following the manufacturer's protocol. The purified PCR products were then sent for Next Generation Sequencing on Illumina MiSeq (2×250). Results were analyzed for INDEL formation or introduction of % specific cytosine mutations.
The position of each nucleotide in the target sequence was determined. “C17” indicates, for example, a cytosine at position 17 of the target sequence. The position of each nucleotide in the target sequence was determined by numbering the first nucleotide in the target sequence closest to the PAM as position 1, and the position number increases in the 3′ direction away from the PAM sequence.
With B1 the activity was 20.6 % mutated reads.
B2 was tested, and the activity was 24.4 % mutated reads.
B3 gave an activity of 16.4 % mutated reads.
